Results taken from publication PMC5815190.

Target: human toll-like receptor 5 (hTLR5) on HEK-Blue-hTLR5 cells (human) (UniProt O60602)
Chain of UniProt O60602 (O60602 21-858): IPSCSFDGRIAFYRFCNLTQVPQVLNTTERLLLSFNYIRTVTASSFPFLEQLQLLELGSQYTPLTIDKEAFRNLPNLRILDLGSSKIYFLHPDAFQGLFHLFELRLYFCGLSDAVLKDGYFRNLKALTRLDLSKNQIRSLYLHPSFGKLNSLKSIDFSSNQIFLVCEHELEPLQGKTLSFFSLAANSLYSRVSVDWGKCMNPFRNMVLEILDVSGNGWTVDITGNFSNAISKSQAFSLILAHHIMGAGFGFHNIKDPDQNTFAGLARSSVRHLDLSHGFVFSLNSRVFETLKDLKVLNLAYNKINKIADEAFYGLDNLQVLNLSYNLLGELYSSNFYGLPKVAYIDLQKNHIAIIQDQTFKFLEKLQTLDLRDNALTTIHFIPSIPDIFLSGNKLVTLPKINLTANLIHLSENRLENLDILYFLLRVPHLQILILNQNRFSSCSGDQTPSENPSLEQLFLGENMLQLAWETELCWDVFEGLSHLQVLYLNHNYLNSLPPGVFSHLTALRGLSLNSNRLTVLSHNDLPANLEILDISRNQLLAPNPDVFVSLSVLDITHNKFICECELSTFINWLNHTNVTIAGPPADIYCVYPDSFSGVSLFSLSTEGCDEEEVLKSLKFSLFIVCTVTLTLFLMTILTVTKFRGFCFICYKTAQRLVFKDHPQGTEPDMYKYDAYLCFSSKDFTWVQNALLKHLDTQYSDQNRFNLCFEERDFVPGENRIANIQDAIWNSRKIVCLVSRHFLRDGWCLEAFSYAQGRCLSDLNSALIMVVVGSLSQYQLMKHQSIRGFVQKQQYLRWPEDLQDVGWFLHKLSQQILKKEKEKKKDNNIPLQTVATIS

Lawsonia intracellularis putative flagellin LI0570 (LFliC) (natural protein)
IL-8 mRNA level (RT-PCR, 2^-ddCt) in HEK-Blue-hTLR5 cells treated with 10 and 100 ng/mL LFliC for 24 h: 590 fold
